Biological target: fluorescent Aβ (1–42) (fluorophore label; fluorophore and position not stated)
Assay: fluorescence polarisation

fold reduction in the calculated Kd against WT: ~11 fold
B1: ABAD Y168G mutant, purified protein (enzyme, human)
chain: MAAACRSVKGLVAVITGGASGLGLATAERLVGQGASAVLLDLPNSGGEAQAKKLGNNCVFAPADVTSEKDVQTALALAKGKFGRVDVAVNCAGIAVASKTYNLKKGQTHTLEDFQRVLDVNLMGTFNVIRLVAGEMGQNEPDQGGQRGVIINTASVAAFEGQVGQAAGSASKGGIVGMTLPIARDLAPIGIRVMTIAPGLFGTPLLTSLPEKVCNFLASQVPFPSRLGDPAEYAHLVQAIIENPFLNGEVIRLDGAIRMQP

Reference: paper PMC13354580 (Nature Communications, 2026)
